Reference: article PMC3025952, “Characterization of a core fragment of the rhesus monkey TRIM5α protein” (BMC Biochemistry, 2011)
Positions count from the first letter of the chain named. Names may count otherwise.

B1: BCCL2 protein, wild-type (B-box 2, coiled coil and linker 2 region of rhesus monkey TRIM5α), His6-tagged, from E. coli (domain or fragment)
chain: GSGLVPRGSASMSDSEVNQEAKPEVKLSPEEGQKVDHCARHGEKLLLFCQEDSKVICWLCERSQEHRGHHTFLMEEVAQEYHVKLQTALEMLRQKQQEAEKLEADIREEKASWKIQIDYDKTNVSADFEQLREILDWEESNELQNLEKEEEDILKSLTKSETEMVQQTQYMRELISELEHRLQGSMMDLLQGVDGIIKRIENMTLKKPKTFHKNQRRVFRAPDLKGMLDMFRELTDA
notes: vector-derived spacer between the His6 tag and E83 of TRIM5αrh; Predicted molecular weight with tag and spacer 29.026 kD; also called wild-type (wt); core fragment of TRIM5αrh; source: E. coli BL21(DE3)pLysS, purified (Ni-NTA, SEC, anion exchange); not shown: His6, N-terminal, kept
B2: BCCL2 LLER protein (L105E, L106E, E120R, R121E), His6-tagged, from E. coli (domain or fragment, rhesus monkey)
chain: B1 chain with L46E, L47E, E61R, R62E
notes: vector-derived spacer between the His6 tag and E83 of TRIM5αrh; also called LLER variant; source: E. coli BL21(DE3)pLysS, purified (Ni-NTA, anion exchange, SEC); not shown: His6, N-terminal, kept

Legend:
[1] = target: the molecule itself; test: SEC; Superdex 200 (10/30) column calibrated with globular molecular-weight markers, PBS; for LLER also with 25 μM ZnCl2 and DTT (profile not significantly affected)
[2] = target: the molecule itself; test: SEC-MALS; SEC-LS: about 300 μg LLER on Superose 6 HR 10/30 with in-line Dawn EOS light scattering, refractometer and UV detector
[3] = target: the molecule itself; test: single-particle cryo-electron microscopy; peak 1 and peak 2 gel-filtration fractions of LLER; peak 2 also incubated with an anti-His6 antibody to count the tags in a particle

Row | Protein | binding result [1] | stoichiometry N [2] | stoichiometry N [3]
1 | B1 | binds |  | 
2 | B2 |  | 2 | ≥ 2
